Data: publication PMC2912409

Experiments:
Experiment in all cases: ITC
DB_E203A = DB_E203A (human, UniProt P03372 176-250, E203A)
DB_K206A = DB_K206A (human, UniProt P03372 176-250, K206A)
DB_K210A = DB_K210A (human, UniProt P03372 176-250, K210A)
DB_R211A = DB_R211A (human, UniProt P03372 176-250, R211A)
DB_S201A = DB_S201A (human, UniProt P03372 176-250, S201A)
DB_D190A = DB_D190A (human, UniProt P03372 176-250, D190A)
DB_S193A = DB_S193A (human, UniProt P03372 176-250, S193A)
DB_H196A = DB_H196A (human, UniProt P03372 176-250, H196A)
DB_AA = DB_AA (human, UniProt P03372 176-250, H196A;E203A)
DB_Y197A = DB_Y197A (human, UniProt P03372 176-250, Y197A)
Sequence of DB_Y197A (P03372 176-250 Y197A): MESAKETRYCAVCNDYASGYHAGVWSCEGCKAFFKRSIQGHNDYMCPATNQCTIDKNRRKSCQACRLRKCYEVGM

Sequence of DB_K206A (P03372 176-250 K206A): as the sequence (P03372 176-250 Y197A) above, with A22Y, K31A counted along it
Sequence of DB_D190A (P03372 176-250 D190A): as the sequence (P03372 176-250 Y197A) above, with D15A, A22Y counted along it
Sequence of DB_R211A (P03372 176-250 R211A): as the sequence (P03372 176-250 Y197A) above, with A22Y, R36A counted along it
Sequence of DB_H196A (P03372 176-250 H196A): as the sequence (P03372 176-250 Y197A) above, with H21A, A22Y counted along it
Sequence of DB_S201A (P03372 176-250 S201A): as the sequence (P03372 176-250 Y197A) above, with A22Y, S26A counted along it
Sequence of DB_AA (P03372 176-250 H196A/E203A): as the sequence (P03372 176-250 Y197A) above, with H21A, A22Y, E28A counted along it
Sequence of DB_K210A (P03372 176-250 K210A): as the sequence (P03372 176-250 Y197A) above, with A22Y, K35A counted along it
Sequence of DB_E203A (P03372 176-250 E203A): as the sequence (P03372 176-250 Y197A) above, with A22Y, E28A counted along it
Sequence of DB_S193A (P03372 176-250 S193A): as the sequence (P03372 176-250 Y197A) above, with S18A, A22Y counted along it

B1: ERE duplex (dsDNA)
DNA 1: CCCAGGTCACAGTGACCTGCG
DNA 2: CGCAGGTCACTGTGACCTGGG
In the case of B1, the Kd (DB_E203A) is reported as 172 ± 48 nM, the Kd (DB_K206A) is reported as 313 ± 6 nM and the Kd (DB_K210A) is reported as 326 ± 11 nM. The Kd (DB_R211A) was 745 ± 76 nM, the Kd (DB_S201A) was 119 ± 9 nM and the Kd (DB_D190A) was 67 ± 6 nM. For the same binder, the Kd (DB_S193A) was 102 ± 10 nM, the Kd (DB_H196A) was 190 ± 24 nM and the Kd (DB_AA) was 387 ± 90 nM. For the same binder, the Kd (DB_Y197A) was 316 ± 7 nM.
